According to publication PMC2572860:

Target: apoMb samples (RNCs bearing apoMb nascent polypeptides of increasing length)
Assay: co-sedimentation

Sequence of DnaK (P0A6Y8 whole entry): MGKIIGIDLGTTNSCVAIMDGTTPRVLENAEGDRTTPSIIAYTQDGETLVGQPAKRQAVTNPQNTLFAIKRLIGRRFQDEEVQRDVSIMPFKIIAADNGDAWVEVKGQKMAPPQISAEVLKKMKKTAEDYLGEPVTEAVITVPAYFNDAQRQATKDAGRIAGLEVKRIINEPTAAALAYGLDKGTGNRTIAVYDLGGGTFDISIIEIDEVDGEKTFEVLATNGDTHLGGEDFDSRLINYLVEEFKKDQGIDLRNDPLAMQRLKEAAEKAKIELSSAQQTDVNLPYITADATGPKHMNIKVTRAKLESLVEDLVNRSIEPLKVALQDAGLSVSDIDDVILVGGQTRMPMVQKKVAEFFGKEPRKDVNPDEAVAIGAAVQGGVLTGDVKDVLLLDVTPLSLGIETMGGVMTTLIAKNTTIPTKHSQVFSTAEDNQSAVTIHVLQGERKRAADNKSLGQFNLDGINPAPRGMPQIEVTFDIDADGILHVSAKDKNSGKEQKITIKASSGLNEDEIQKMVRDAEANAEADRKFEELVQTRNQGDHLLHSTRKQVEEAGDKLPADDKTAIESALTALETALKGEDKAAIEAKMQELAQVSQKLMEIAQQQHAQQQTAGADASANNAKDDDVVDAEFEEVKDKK

- DnaK concentration in the resuspended RNC pellet: 20 to 65 nM
Substance: DnaK (from UniProt P0A6Y8 1-638) (natural protein)
